The target in assay [1] is AAV2/po1 hybrid vector particle (AAVpo1 capsid of VP1, VP2, VP3) (porcine adeno-associated virus AAVpo1). In words: cell-based or functional assay.
Assay [2] has as its target AAV2/5 vector particle (AAV5 capsid proteins VP1, VP2, VP3) (adeno-associated virus 5). Briefly: cell-based or functional assay.

Some results are limits rather than exact numbers.

With “Pooled Human Ig (Immune Globulin Intravenous (Human) Carimune NF)”, the concentration of the pooled Human Ig required to neutralise >50% of AAV-LacZ particles was above 12 mg/mL in assay [1] and 7.5e-05 mg/mL in assay [2].

The values above are taken from patent US20100272685A1.
